Laboratory results as given in article PMC3489985 (Analytical biochemistry, 2012).

How the values were obtained:
[1] = system: O=[N+]([O-])c1ccc(Cl)c(Cl)c1; assay: spectrophotometric enzyme kinetics; assay type: biochemical, Culex pipiens; details: 30.0 °C
[2] = molecular target: CpGSTD1 (Culex pipiens, UniProt H9M8E3); assay: spectrophotometric enzyme kinetics; assay type: biochemical
[3] = substrate: Cc1cc(=O)oc2ccc(OC(=O)[C@H]3[C@@H](/C=C(\Cl)C(F)(F)F)C3(C)C)cc12; assay: fluorescent enzyme kinetics; assay type: biochemical, Culex pipiens; details: GSH; 30.0 °C
[4] = substrate: Cc1cc(=O)oc2ccc(OC(=O)[C@H]3[C@@H](C=C(Cl)Cl)C3(C)C)cc12; assay: fluorescent enzyme kinetics; assay type: biochemical, Culex pipiens; details: GSH; 30.0 °C

With CpGSTD1 (Culex pipiens) the Km [1] was 691 ± 106 µM, the Vmax [1] was 2.32 ± 0.152 µmol/min/mg and the kcat [1] was 0.92 s⁻¹. For the same molecule, the kcat/Km [1] was 1300 M⁻¹ s⁻¹.

With O=[N+]([O-])c1ccc(Cl)c([N+](=O)[O-])c1 [CDNB, 1-chloro-2,4-dinitrobenzene] the Km [2] was 240 ± 18 µM.

B1: CpGSTD1 (Culex pipiens) (protein)
chain: MDFYYLPGSAPCRAVQMTAAAVGVELNLKLTNLMAGEHMKPEFLKLNPQHTIPTLVDNGFSLWESRAIQIYLVEKYGKDDSLYPKDPQKRALVNQRLFFDMGVFYQRFGDYWYPQIFAKQPANADNEKKMQEAVAFLNTFLEGHQYAAGDQLTIADLSLAASAATYEVAGFDFSKYPNVQAWLERCKKNAPGYDLNQAGADEFNAKFLGGK
Work on B1 yielded a Km [3] of 10.0 ± 0.7 µM, a Vmax [3] of 0.487 µmol/min/mg and a kcat [3] of 0.19 s⁻¹. It also gave a kcat/Km [3] of 19000 M⁻¹ s⁻¹, a Km [4] of 9.0 ± 0.8 µM and a Vmax [4] of 0.298 µmol/min/mg. For the same molecule, the kcat [4] was 0.12 s⁻¹ and the kcat/Km [4] was 13000 M⁻¹ s⁻¹.
